Laboratory results published in patent US20180155693A1, “Method of Differentiating Stem Cells” (BioTime, Inc., priority 2008, published 2018).

Assays:
[1] = system: ESI035, ESI049, ESI051 and HES-3; assay: Effect of early growth factors, Pdx-1 RT-PCR; assay type: cell-based, human; details: day 18; early factors per Table 2; compared to cells only treated with Activin A; FIG. 5
Excerpt: The effect of early differentiation factors was examined by differentiating cell lines ESI035, ESI049, ESI051 and HES-3 in 24-well plates in six varying cultures and harvesting them for analysis using immunohistochemistry and Quantitative RT-PCR analysis on day 18 and day 30 of differentiation. The culture medium (1×Glutamax, 1×NEAA, 1×13-mercaptoethanol in RPMI 1640 (RPMI)) was supplemented with other factors summarized in table 2 below. The medium was changed every 2-3 days.
As the effect of FGF2 as an early growth factor varied depending on the cell line used, no conclusion was derived with regard to the effect of an early dose of FGF2 on the expression of Pdx-1.
(§1) Total RNA from hESC at various stages of differentiation was isolated using the Qiagen RNeasy kit […] according to the manufacturer's instructions. RNA was quantified by UV absorption. 1 to 5 μg of RNA was DNase I treated and converted to cDNA using M-MuIV reverse transcriptase (New England Biolabs) using random hexamer primers according to the manufacturer's instructions. Quantitative PCR (RT-PCR) was performed according to the manufacturer's instructions using a BioRad iCycler with approximately 50 ng cDNA per reaction containing 250 nM of each primer and 1×SYBR green master mix (Bio-Rad) and analyzed by Bio-RAD thermocycler.

[2] = system: human embryonic stem cells; assay: Notch signaling inhibition, C-peptide positive cells by immunohistochemistry; assay type: cell-based; details: added day 9-18 of differentiation; cells fixed at day 21; FIG. 7
Experimental: In order to increase the percentage of Pdx-1 and C-peptide producing cells, the cells from Example 1 were rinsed twice with PBS and then cultured in a culture medium (2% 8-27, 1×Glutamax, 1×NEAA, 1×13-mercaptoethanol in RPMI 1640 (RPMI)) comprising 50 ng/ml Activin A and 50 ng/ml BMP4 for 3 days. The medium was then changed to a medium comprising 50 ng/ml Activin A in RPMI and incubated for 3 days. The cells were then cultured in a medium comprising 3 μM RA, 50 ng/ml FGF2, 1 μM SANT-1 and 10 mM Nicotinamide in RPMI for 6 days with the medium changed every 2-3 days. Notch signaling in the cells was then inhibited by the addition of Gamma Secretase Inhibitor X (DAPT) from day 9-18 of differentiation.
Plate-based immunohistochemistry was performed using standard techniques. Cells were fixed in 4% PFA in PBS for 30 min, washed with PBS and incubated in blocking solution consisting of 10% FCS and 0.1% Triton X-100 in PBS for 1 hr. Cells were incubated overnight at 4 ° C. with the primary antibody diluted in blocking solution. Examples of primary antibodies and their dilutions used include: guinea pig anti-Pdx-1 (1:10,000), rabbit anti-C-peptide (Linea, 1:1,000), goat anti-Sox17 (R & D systems, 1:100), goat anti-FoxA2 (R & D systems 1:100) and mouse anti-Oct4 (Santacruz, 1:100). […]

[3] = cited from earlier work
[4] = system: mix of cell lines, ESI017 and ESI035; assay: Definitive endoderm time course, real-time PCR of Sox17 and FoxA2; assay type: cell-based, human
Experimental: The effects of Activin A with and without BMP4 on the expression of markers of definitive endoderm were examined. Activin A and BMP4 were added to a mix of cell lines, ESI017 and ESI035, of Example 1 after the cells had been washed twice with PBS. Four groups of cells were then cultured in four different conditions:
1) 50 ng/ml Activin A and 50 ng/ml BMP4 in a culture medium (2% B-27, 1×Glutamax, 1×NEAA, 1×J3-mercaptoethanol in RPMI 1640 (RPMI)) for 3 days followed by treatment with Activin A (50 ng/ml) in RPMI.
2) 50 ng/ml Activin A and 50 ng/ml BMP4 in RPMI for about 6 hours followed by treatment with Activin A (50 ng/ml) in RPMI.
3) 50 ng/ml Activin A in RPMI.
4) 10% KOSR in RPMI (negative control).
The cells were cultured continuously and a sample harvested daily. The medium was changed every 2-3 days. Real-time PCR was performed as described in Example 9.
as §1, with “1 to 5 μg of RNA was DNase I treated and converted to cDNA using M-MuIV reverse transcriptase (New England Biolabs) using random hexamer primers according to the manufacturer's instructions.” left out

[5] = system: ESI035, ESI049 and ESI051; assay: Screen of maturation growth factors, immunohistochemistry for C-peptide and Pdx-1; assay type: cell-based, human; details: day 18
Excerpt: The effect of maturation growth factors was examined by differentiating cell lines ESI035, ESI049 and ES1051 from Example 1 in 96-well plates in two varying cultures and harvesting them for analysis using immunohistochemistry on day 18 of differentiation. The culture medium (1×Glutamax, 1×NEAA, 1×f3-mercaptoethanol in RPMI 1640 (RPMI)) were supplemented with other factors summarized in Table 4 below. The notable changes to the differentiation protocol used here compared to that used in Example 4 were the shortened period of endoderm induction and the addition of nicotinamide from day 6 of differentiation. The medium was changed every 2-3 days. A list of growth factors (G.F) were tested according to the protocol described in Table 4. […] There were added at two time points. […] None of the added growth factors had any consistent effect on cell viability, C-peptide expression and Pdx-1 expression. Plate-based immunohistochemistry was performed using standard techniques. Cells were fixed in 4% PFA in PBS for 30 min, washed with PBS and incubated in blocking solution consisting of 10% FCS and 0.1% Triton X-100 in PBS for 1 hr. Cells were incubated overnight at 4 ° C. with the primary antibody diluted in blocking solution. […]

Molecule: FGF2: member of the FGF family
- Pdx-1 expression (RT-PCR) [1]: did not result in the same effect on Pdx-1 expression in all four cell lines

Molecule: CC(C)C[C@H](NC(=O)[C@H](Cc1ccccc1)C[C@@H](O)[C@H](Cc1ccccc1)NC(=O)OC(C)(C)C)C(=O)N[C@@H](Cc1ccccc1)C(N)=O [Gamma Secretase Inhibitor X]
- Concentration resulting in a significant number of C-peptide positive cells [2]: over 10 μM

Molecule: C-peptide
- half-life [3]: about 30 minutes

B1: BMP4: secreted polypeptide belonging to the BMP subgroup of the TGF-superfamily (protein, UniProt P12644 293-408, looked up)
Bone morphogenetic protein 4: SPKHHSQRARKKNKNCRRHSLYVDFSDVGWNDWIVAPPGYQAFYCHGDCPFPLADHLNSTNHAIVQTLVNSVNSSIPKACCVPTELSAISMLYLDEYDKVVLKNYQEMVVEGCGCR
- FoxA2 expression ([4]; addition of 50 ng/ml BMP4 to Activin A, up to day 10, FIG. 2B): did not appear to greatly affect FoxA2 expression
- Pdx-1 positive cells ([5]; BMP4 treated plates compared to plates not BMP4 treated): more Pdx-1 positive cells
- frequency of C-peptide positive cells ([5]; initially cultured in medium comprising BMP4 vs Activin only): higher frequency of C-peptide positive cells

B2: Activin A: protein of the TGF-superfamily (protein, UniProt P08476 311-426, looked up)
Inhibin beta A chain: GLECDGKVNICCKKQFFVSFKDIGWNDWIIAPSGYHANYCEGECPSHIAGTSGSSLSFHSTVINHYRMRGHSPFANLKSCCVPTKLRPMSMLYYDDGQNIIKKDIQNMIVEECGCS
modifications: Inhibin beta A chain
notes: protein of the TGF-superfamily
- expression of Sox17 mRNA ([4]; 50 ng/ml each in RPMI, daily samples, FIG. 2A): weak expression of Sox17 until day 6
